The target of the assay is full-length mouse PrP, cellular prion protein PrP^c (mouse) (UniProt P04925).
Sequence of full-length mouse PrP, cellular prion protein PrP^c (mouse) (P04925 23-230 limits assumed): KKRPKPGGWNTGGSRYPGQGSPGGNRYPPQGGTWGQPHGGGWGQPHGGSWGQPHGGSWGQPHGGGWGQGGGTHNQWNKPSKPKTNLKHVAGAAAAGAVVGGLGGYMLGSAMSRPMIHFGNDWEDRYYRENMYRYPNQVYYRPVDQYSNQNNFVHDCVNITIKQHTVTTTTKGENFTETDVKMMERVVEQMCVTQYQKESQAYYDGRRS

In turn, 6D11 anti-PrP mouse monoclonal antibody displayed an IC50 of 1 nM.

The values above are taken from US9217036.
